The record followed here is the supplement of paper PMC9112550, “Optimization of the antimicrobial peptide Bac7 by deep mutational scanning” (BMC Biology, 2022).

In this series the test system is Escherichia coli TOP10. Put plainly: shrunken log2 fold change of peptide-encoding DNA abundance (4.5 h post-induction vs induction); higher = less antimicrobial activity (less host growth inhibition). The note with it: time post-induction: 4.5 h; library: site-saturation at positions 5, 18, 19, 20.
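Further: peptides expressed intracellularly from a pBAD plasmid library in pooled LB shake-flask culture, induced with 0.3% L-arabinose, DNA abundance read by NGS, three biological replicates, DESeq2 with apeglm shrinkage.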

As to RRIRGRPPRLPRPRPRPQWHPRP, the “shrunken log2 fold change” value came to 0.0863.
RRIRYRPPRLPRPRPRPPMKPRP: the “shrunken log2 fold change” value was -0.137.
Consider RRIRGRPPRLPRPRPRPVFWPRP, for which the “shrunken log2 fold change” value came out at 0.768.
In the case of RRIRPRPPRLPRPRPRPMEIPRP, the “shrunken log2 fold change” value was -0.00192.
Under RRIRIRPPRLPRPRPRPHNCPRP stands -0.0359; under RRIRPRPPRLPRPRPRPVCTPRP, 0.0082.
As to RRIRFRPPRLPRPRPRPMGTPRP, the “shrunken log2 fold change” value was -0.0834.
Regarding RRIRQRPPRLPRPRPRPMVFPRP, the “shrunken log2 fold change” value worked out at 0.111.
In the case of RRIRERPPRLPRPRPRPSCRPRP, the “shrunken log2 fold change” value was -0.249.
As to RRIRHRPPRLPRPRPRPLFFPRP, the “shrunken log2 fold change” value is -0.171.
Under RRIRKRPPRLPRPRPRPMLDPRP stands 0.16.
In the case of RRIRNRPPRLPRPRPRPGPNPRP it was 0.0126; in that of RRIRMRPPRLPRPRPRPIQNPRP, -0.157; in that of RRIRIRPPRLPRPRPRPAQWPRP, 0.211.
Under RRIRCRPPRLPRPRPRPIKSPRP stands -0.185; under RRIRQRPPRLPRPRPRPSVSPRP, -0.000735.
RRIRCRPPRLPRPRPRPSKVPRP: the “shrunken log2 fold change” value is -0.156.
As to RRIRFRPPRLPRPRPRPNAGPRP, the “shrunken log2 fold change” value is -0.0253.
As to RRIRDRPPRLPRPRPRPPCNPRP, the “shrunken log2 fold change” value was -0.424.
Under RRIRQRPPRLPRPRPRPWKWPRP stands -0.299.
As for RRIRTRPPRLPRPRPRPPHQPRP, the “shrunken log2 fold change” value turned out to be 0.237.
Under RRIRVRPPRLPRPRPRPTNDPRP stands 0.0333; under RRIRTRPPRLPRPRPRPTYFPRP, -0.313; under RRIRQRPPRLPRPRPRPKRYPRP, -0.138.
As for RRIRRRPPRLPRPRPRPLIYPRP, the “shrunken log2 fold change” value was found to be 0.431.
On to RRIRNRPPRLPRPRPRPAKMPRP, for which the “shrunken log2 fold change” value was -0.0794.
RRIRVRPPRLPRPRPRPVTAPRP: the “shrunken log2 fold change” value was -0.0594.
On to RRIRYRPPRLPRPRPRPLYMPRP, for which the “shrunken log2 fold change” value is -0.441.
In the case of RRIRRRPPRLPRPRPRPRQCPRP it was 0.596.
Under RRIRGRPPRLPRPRPRPAFEPRP stands 0.414; under RRIRIRPPRLPRPRPRPQWMPRP, -0.103; under RRIRDRPPRLPRPRPRPTNFPRP, -0.208.
In the case of RRIRMRPPRLPRPRPRPCGEPRP it was 0.967; in that of RRIRRRPPRLPRPRPRPLCQPRP, -0.00285.
RRIRDRPPRLPRPRPRPTEIPRP: the “shrunken log2 fold change” value was found to be 0.23.
In the case of RRIRTRPPRLPRPRPRPMYRPRP it was -0.0591.
RRIRRRPPRLPRPRPRPCFVPRP: the “shrunken log2 fold change” value was 0.0292.
In the case of RRIRSRPPRLPRPRPRPIDFPRP it was -0.0652; in that of RRIRERPPRLPRPRPRPEPGPRP, 0.667; in that of RRIRHRPPRLPRPRPRPFFVPRP, -0.224.
Under RRIRTRPPRLPRPRPRPKYIPRP stands -0.748.
Under RRIRYRPPRLPRPRPRPCTYPRP stands -0.194; under RRIRWRPPRLPRPRPRPHARPRP, 0.516; under RRIRFRPPRLPRPRPRPMLVPRP, -0.0924.
Consider RRIRFRPPRLPRPRPRPAQVPRP, for which the “shrunken log2 fold change” value is -0.0516.
As to RRIRGRPPRLPRPRPRPTRYPRP, the “shrunken log2 fold change” value was 0.357.
As to RRIRHRPPRLPRPRPRPYKMPRP, the “shrunken log2 fold change” value was -0.226.
In the case of RRIRGRPPRLPRPRPRPNWMPRP, the “shrunken log2 fold change” value is -0.194.
In the case of RRIRDRPPRLPRPRPRPDQIPRP, the “shrunken log2 fold change” value was -0.0336.
Under RRIRFRPPRLPRPRPRPAVMPRP stands 0.248; under RRIRERPPRLPRPRPRPHECPRP, -0.0253.
In the case of RRIRCRPPRLPRPRPRPPEDPRP it was 0.754; in that of RRIRRRPPRLPRPRPRPFMEPRP, 0.0534.
Under RRIRERPPRLPRPRPRPHYLPRP stands -0.139.
In the case of RRIRKRPPRLPRPRPRPQWYPRP, the “shrunken log2 fold change” value was -0.145.
For RRIRTRPPRLPRPRPRPMTQPRP, the “shrunken log2 fold change” value is 0.13.
Regarding RRIRARPPRLPRPRPRPSNQPRP, the “shrunken log2 fold change” value is -0.0197.
For the sequence RRIRYRPPRLPRPRPRPVHAPRP, the “shrunken log2 fold change” value is -0.13.
In the case of RRIRHRPPRLPRPRPRPPSYPRP it was -0.266; in that of RRIRCRPPRLPRPRPRPYQPPRP, -0.152.
In the case of RRIRPRPPRLPRPRPRPEWKPRP it was -0.00168.
RRIRWRPPRLPRPRPRPYLTPRP: the “shrunken log2 fold change” value was -0.089.
Regarding RRIRCRPPRLPRPRPRPGHVPRP, the “shrunken log2 fold change” value was found to be 0.0304.
As to RRIRWRPPRLPRPRPRPVRTPRP, the “shrunken log2 fold change” value came out at 0.955.
As for RRIRDRPPRLPRPRPRPAVSPRP, the “shrunken log2 fold change” value was -0.000946.
For RRIRIRPPRLPRPRPRPHKNPRP, the “shrunken log2 fold change” value is -0.528.
Under RRIRKRPPRLPRPRPRPSNNPRP stands -0.0375.
Regarding RRIRDRPPRLPRPRPRPNHHPRP, the “shrunken log2 fold change” value was -0.539.
In the case of RRIRYRPPRLPRPRPRPTPNPRP it was 0.507; in that of RRIRGRPPRLPRPRPRPDDMPRP, 0.00936; in that of RRIRERPPRLPRPRPRPWDIPRP, -0.0155.
Under RRIRIRPPRLPRPRPRPAWIPRP stands -0.187; under RRIRTRPPRLPRPRPRPKQNPRP, 0.638; under RRIRFRPPRLPRPRPRPVTQPRP, -0.244.
In the case of RRIRVRPPRLPRPRPRPECHPRP it was 0.241.
Regarding RRIRNRPPRLPRPRPRPNKIPRP, the “shrunken log2 fold change” value is -0.658.
On to RRIRHRPPRLPRPRPRPQIDPRP, for which the “shrunken log2 fold change” value is -0.123.
In the case of RRIRVRPPRLPRPRPRPVGNPRP it was -0.129; in that of RRIRYRPPRLPRPRPRPDVLPRP, 0.0494.
Regarding RRIRQRPPRLPRPRPRPDAFPRP, the “shrunken log2 fold change” value is 0.141.
Under RRIRCRPPRLPRPRPRPMKDPRP stands -0.594; under RRIRLRPPRLPRPRPRPKKVPRP, -0.0117.
Under RRIRPRPPRLPRPRPRPLFRPRP stands 0.159.
RRIRIRPPRLPRPRPRPGDSPRP: the “shrunken log2 fold change” value turned out to be 0.0577.
In the case of RRIRARPPRLPRPRPRPVQLPRP it was 0.101.
Take RRIRNRPPRLPRPRPRPIYDPRP: the “shrunken log2 fold change” value was -0.4.
In the case of RRIRKRPPRLPRPRPRPPFLPRP it was -0.0158; in that of RRIRERPPRLPRPRPRPWPAPRP, 0.238; in that of RRIRMRPPRLPRPRPRPPNYPRP, 0.0891.
In the case of RRIRDRPPRLPRPRPRPPFKPRP it was 0.18.
RRIRGRPPRLPRPRPRPCCRPRP: the “shrunken log2 fold change” value was 0.918.
In the case of RRIRKRPPRLPRPRPRPAHTPRP it was 0.471.
Under RRIRNRPPRLPRPRPRPPKCPRP stands 0.189; under RRIRCRPPRLPRPRPRPGYSPRP, -0.483.
For RRIRKRPPRLPRPRPRPRYCPRP, the “shrunken log2 fold change” value is -0.142.
Under RRIRRRPPRLPRPRPRPAPQPRP stands 1.39; under RRIRIRPPRLPRPRPRPRPLPRP, 0.181.
RRIRPRPPRLPRPRPRPCDPPRP: the “shrunken log2 fold change” value is -0.575.
On to RRIRIRPPRLPRPRPRPKRKPRP, for which the “shrunken log2 fold change” value is -0.105.
For RRIRNRPPRLPRPRPRPYVLPRP, the “shrunken log2 fold change” value was found to be 0.0201.
As for RRIRCRPPRLPRPRPRPIGQPRP, the “shrunken log2 fold change” value was determined as 0.0567.
In the case of RRIRFRPPRLPRPRPRPIWEPRP it was -0.0122.
For the sequence RRIRYRPPRLPRPRPRPDSFPRP, the “shrunken log2 fold change” value amounted to 0.0025.
Under RRIRERPPRLPRPRPRPCPPPRP stands -0.0496; under RRIRGRPPRLPRPRPRPDWTPRP, 0.316; under RRIRWRPPRLPRPRPRPMWGPRP, 0.117.
On to RRIRIRPPRLPRPRPRPKHIPRP, for which the “shrunken log2 fold change” value is -0.765.
In the case of RRIRWRPPRLPRPRPRPCWDPRP it was 0.0945; in that of RRIRERPPRLPRPRPRPICPPRP, -0.794; in that of RRIRARPPRLPRPRPRPTMSPRP, 0.159.
For the sequence RRIRYRPPRLPRPRPRPAMVPRP, the “shrunken log2 fold change” value is -0.136.
In the case of RRIRKRPPRLPRPRPRPIKVPRP it was -0.386; in that of RRIRGRPPRLPRPRPRPTTEPRP, 0.836; in that of RRIRYRPPRLPRPRPRPHSKPRP, -0.463.
For RRIRQRPPRLPRPRPRPWCRPRP, the “shrunken log2 fold change” value is -0.325.
Take RRIRERPPRLPRPRPRPILIPRP: the “shrunken log2 fold change” value is -0.0809.
RRIRCRPPRLPRPRPRPCCHPRP: the “shrunken log2 fold change” value was -0.204.
Under RRIRLRPPRLPRPRPRPKPDPRP stands 0.315.
In the case of RRIRIRPPRLPRPRPRPCQSPRP, the “shrunken log2 fold change” value is -0.00131.
With RRIRKRPPRLPRPRPRPEIMPRP, the “shrunken log2 fold change” value is 1.31.
Under RRIRDRPPRLPRPRPRPFCTPRP stands -0.0992; under RRIRWRPPRLPRPRPRPTWRPRP, 0.609; under RRIRVRPPRLPRPRPRPEAQPRP, 0.112.
Consider RRIRPRPPRLPRPRPRPMFGPRP, for which the “shrunken log2 fold change” value was -0.253.
In the case of RRIRSRPPRLPRPRPRPWLVPRP it was 0.0191.
